Experimental data reported in the Human Domainome abundance scans (Beltran et al. 2025).

B1: Far upstream element-binding protein 1, residues 184 to 257; numbered along this chain, Q96AE4 (parent)
chain: GNAVQEIMIPASKAGLVIGKGGETIKQLQERAGVKMVMIQDGPQNTGADKPLRITGDPYKVQQAKEMVLELIRD

Variants of: B1
Experiment: abundance fitness (aPCA) (normalised: wild type 0, dead -1); higher = more abundant; growth selection in yeast, the domain comes from the species named
Settings: Homo sapiens

Abundance fitness, by site and new letter:
M38: L 0.035, E -0.163, P -0.287, I -0.036, Y -0.094, G -0.324, F 0.037
E23: D -0.037, P -0.434, F -0.101, N -0.026, Q -0.021, W -0.087, A 0.042, H 0.072, V -0.063, M -0.041, Y -0.067, G 0.018, T 0.041, R 0.136, K 0.062, I -0.051, L -0.051, S 0.043, C -0.011
I25: C -0.267, L 0.002, H -0.324, V -0.125, F -0.158, T -0.361, K -0.371, Y -0.332, S -0.387, E -0.638, M 0.03, G -0.624, D -0.359, R -0.316, A -0.32, P -0.64
K35: N 0.023, E 0.003, Q 0.015, H 0.003, D -0.07, R -0.007, C -0.11, V -0.124, W -0.308, G -0.071, M -0.154, Y -0.248, T -0.093, F -0.261, P -0.472, S -0.116, I -0.158, L -0.118
A32: N 0.029, I -0.034, M -0.009, R -0.367, P -0.706, F 0.054, L -0.017, E -0.201, T 0.02, G -0.075, H 0.031, W -0.057, C 0.006, Q -0.077, S -0.013, V -0.062, D -0.412, K -0.171, Y -0.016
R31: A -0.036, M -0.096, H 0.032, F -0.155, V -0.113, D -0.028, K 0.016, W -0.221, L -0.125, Q 0.017, T -0.042, C -0.084, S -0.008, E 0, I -0.12, G -0.106, P -0.484, Y -0.168
G19: Y -0.685, V -0.763, S -0.366, T -0.371
K26: D -0.111, M -0.122, E -0.093, H -0.198, Y -0.041, P -0.447, C -0.179, F -0.129, V -0.157, G -0.098, N -0.09, I 0.013, R -0.021, L -0.087, T -0.066
G21: D -0.024, N 0.05, E -0.059, L -0.1, H -0.015, S -0.033, F -0.05, Q -0.028, K 0.015, M -0.033, I -0.278, C -0.076, P -0.493, R 0.003, V -0.219, T -0.05
G22: T -0.29, M -0.115, C -0.106, K -0.14, H -0.127, Y -0.237, P -0.328, I -0.417, R -0.116, L -0.157, E -0.056, V -0.261, A 0.003, F -0.145, Q -0.075, S -0.114
T24: I -0.11, R -0.013, S -0.078, F -0.101, G -0.008, L -0.099, K 0.007, E -0.08, D -0.208, Q -0.012, P -0.206, W -0.224, C -0.061, A -0.075, M 0.002, Y -0.116, H -0.029, N -0.075, V -0.029
